Source: paper PMC5025857, “Redox-dependent Regulation of Gluconeogenesis by a Novel Mechanism Mediated by a Peroxidatic Cysteine of Peroxiredoxin” (Scientific Reports, 2016)

B1: Tsa1 (wild type) [S. cerevisiae] / HA-tagged Pyk1 (HA-Pyk1) [S. cerevisiae] (parent)
chain 1: MVAQVQKQAPTFKKTAVVDGVFDEVSLDKYKGKYVVLAFIPLAFTFVCPTEIIAFSEAAKKFEEQGAQVLFASTDSEYSLLAWTNIPRKEGGLGPINIPLLADTNHSLSRDYGVLIEEEGVALRGLFIIDPKGVIRHITINDLPVGRNVDEALRLVEAFQWTDKNGTVLPCNWTPGAATIKPTVEDSKEYFEAANK
chain 2: MSRLERLTSLNVVAGSDLRRTSIIGTIGPKTNNPETLVALRKAGLNIVRMNFSHGSYEYHKSVIDNARKSEELYPGRPLAIALDTKGPEIRTGTTTNDVDYPIPPNHEMIFTTDDKYAKACDDKIMYVDYKNITKVISAGRIIYVDDGVLSFQVLEVVDDKTLKVKALNAGKICSHKGVNLPGTDVDLPALSEKDKEDLRFGVKNGVHMVFASFIRTANDVLTIREVLGEQGKDVKIIVKIENQQGVNNFDEILKVTDGVMVARGDLGIEIPAPEVLAVQKKLIAKSNLAGKPVICATQMLESMTYNPRPTRAEVSDVGNAILDGADCVMLSGETAKGNYPINAVTTMAETAVIAEQAIAYLPNYDDMRNCTPKPTSTTETVAASAVAAVFEQKAKAIIVLSTSGTTPRLVSKYRPNCPIILVTRCPRAARFSHLYRGVFPFVFEKEPVSDWTDDVEARINFGIEKAKEFGILKKGDTYVSIQGFKAGAGHSNTLQVSTV

Variants of: B1
Experiment: pull-down (co-IP with anti-HA beads, anti-Tsa1 immunoblot, band quantification)
Settings: +DTT, lane 9, lysate 67 μg/lane and 111 μg/lane for HA-Pyk1 and Tsa1, parent: 1
Variant chain 1 C48T C171T has a ratio to parent of 0.5.

Same assay, conditions: +DTT, lane 9, lysate 67 μg/lane and 111 μg/lane for HA-Pyk1 and Tsa1, parent: 3.1
chain 1 C48T C171T gave a screen value (% of Total Tsa1) of 1.3.
